Targets include HLA-A*02:01; HLA-A*02:02; HLA-A*02:03; HLA-A*02:06; HLA-A*68:02.
Assay in all cases: IEDB peptide-MHC binding, purified MHC/competitive/radioactivity; ≥ and ≤ were set here for values at or beyond the usual limits of such assays
Where [1] appears, read: source organism: Vaccinia virus WR.
[2] abbreviates: source organism: Hepacivirus hominis.
Setting [3] is: source organism: Influenza A virus.

By IC50 is commonly meant the concentration that gives 50% inhibition. In the case of SISEINEWL, the IC50 worked out at 1.9 nM in the test with HLA-A*02:01 (setting [1]); 0.13 nM with HLA-A*02:02 (setting [1]); 1.8 nM in the test with HLA-A*02:03 (setting [1]); 6.3 nM in the test with HLA-A*02:06 (setting [1]); 1.3 nM with HLA-A*68:02 (setting [1]).
For the sequence LIVNSVLLFL, the IC50 in the test with HLA-A*02:01 (source organism: SARS-CoV1) came out at 27 nM; in the test with HLA-A*02:02 (source organism: SARS-CoV1), 3.7 nM; with HLA-A*02:03 (source organism: SARS-CoV1), 90 nM; in the test with HLA-A*02:06 (source organism: SARS-CoV1) it was 11 nM; with HLA-A*68:02 (source organism: SARS-CoV1), 169 nM.
Regarding RVFKKIMSI, the IC50 in the test with HLA-A*02:01 (setting [1]) worked out at 80 nM; with HLA-A*02:02 (setting [1]), 350 nM; with HLA-A*02:03 (setting [1]) it was 0.18 nM; with HLA-A*02:06 (setting [1]), 75 nM; with HLA-A*68:02 (setting [1]), 170 nM.
The corresponding values for LMIFISSFL are 0.32 nM, 0.65 nM, 0.13 nM, 18 nM and 35 nM.
In the case of IVNCLSLSNL, the IC50 in the test with HLA-A*02:01 (setting [1]) is 1930 nM; in the test with HLA-A*02:02 (setting [1]) it was 338 nM; in the test with HLA-A*02:03 (setting [1]), 128 nM; with HLA-A*02:06 (setting [1]), 1280 nM; in the test with HLA-A*68:02 (setting [1]) it was 3590 nM.
Consider SISGVLWTV, for which the IC50 was found to be 11 nM with HLA-A*02:01 (setting [2]); 8.8 nM in the test with HLA-A*02:02 (setting [2]); 18 nM with HLA-A*02:03 (setting [2]); 53 nM with HLA-A*02:06 (setting [2]); 5.5 nM with HLA-A*68:02 (setting [2]).
Consider SQFSYKELYV, for which the IC50 in the test with HLA-A*02:01 (setting [1]) is 121 nM; with HLA-A*02:02 (setting [1]) it was 14 nM; with HLA-A*02:03 (setting [1]), 27 nM; with HLA-A*02:06 (setting [1]), 71 nM; in the test with HLA-A*68:02 (setting [1]), 634 nM.
In the case of TQWSLFFFV, the IC50 was 0.77 nM with HLA-A*02:01 (source organism: SARS-CoV1); 80 nM in the test with HLA-A*02:02 (source organism: SARS-CoV1); 540 nM in the test with HLA-A*02:03 (source organism: SARS-CoV1); 0.81 nM in the test with HLA-A*02:06 (source organism: SARS-CoV1); 104 nM with HLA-A*68:02 (source organism: SARS-CoV1).
On to FMSHVKSVT, for which the IC50 with HLA-A*02:01 (setting [1]) is 873 nM; with HLA-A*02:02 (setting [1]), 508 nM; with HLA-A*02:03 (setting [1]), 181 nM; with HLA-A*02:06 (setting [1]), 4320 nM; with HLA-A*68:02 (setting [1]) it was 2600 nM.
As for YVSVMNFIPI, the IC50 in the test with HLA-A*02:01 (setting [1]) was found to be 127 nM; with HLA-A*02:02 (setting [1]), 341 nM; with HLA-A*02:03 (setting [1]), 152 nM; with HLA-A*02:06 (setting [1]) it was 0.11 nM; in the test with HLA-A*68:02 (setting [1]), 55 nM.
The corresponding values for CIVQSVLRDI are 1180 nM, 218 nM, 158 nM, 849 nM and 3480 nM.
For the sequence LAISAVYFKA, the IC50 was determined as 770 nM with HLA-A*02:01 (setting [1]); 1430 nM in the test with HLA-A*02:02 (setting [1]); 363 nM with HLA-A*02:03 (setting [1]); 659 nM in the test with HLA-A*02:06 (setting [1]); 802 nM with HLA-A*68:02 (setting [1]).
Take DVSLSAYII: the IC50 stood at 1500 nM with HLA-A*02:01 (setting [1]); 691 nM with HLA-A*02:02 (setting [1]); 755 nM with HLA-A*02:03 (setting [1]); 4380 nM in the test with HLA-A*02:06 (setting [1]); 591 nM with HLA-A*68:02 (setting [1]).
Take LALKNSQAEL: the IC50 with HLA-A*02:01 (setting [1]) was determined as 3760 nM; with HLA-A*02:02 (setting [1]), 741 nM; in the test with HLA-A*02:03 (setting [1]) it was 333 nM; with HLA-A*02:06 (setting [1]), 1250 nM; with HLA-A*68:02 (setting [1]) it was 3660 nM.
Turning to FLAFVVFLLV, the IC50 came to 78 nM with HLA-A*02:01 (source organism: SARS-CoV1); 2.4 nM in the test with HLA-A*02:02 (source organism: SARS-CoV1); 211 nM in the test with HLA-A*02:03 (source organism: SARS-CoV1); 2980 nM in the test with HLA-A*02:06 (source organism: SARS-CoV1); 4320 nM in the test with HLA-A*68:02 (source organism: SARS-CoV1).
For TIDKSSPLYI, the IC50 in the test with HLA-A*02:01 (setting [1]) worked out at 1900 nM; with HLA-A*02:02 (setting [1]) it was 387 nM; with HLA-A*02:03 (setting [1]), 12 nM; in the test with HLA-A*02:06 (setting [1]), 1820 nM; with HLA-A*68:02 (setting [1]), 1550 nM.
Take MLSVVGFLV: the IC50 in the test with HLA-A*02:01 (source organism: SARS-CoV1) came out at 7.7 nM; with HLA-A*02:02 (source organism: SARS-CoV1) it was 1 nM; with HLA-A*02:03 (source organism: SARS-CoV1), 3.5 nM; with HLA-A*02:06 (source organism: SARS-CoV1) it was 116 nM; in the test with HLA-A*68:02 (source organism: SARS-CoV1), 92 nM.
As for YASALVLLI, the half-maximal inhibitory concentration (IC50) in the test with HLA-A*02:01 (source organism: SARS-CoV1) was 13 nM; in the test with HLA-A*02:02 (source organism: SARS-CoV1), 3.2 nM; with HLA-A*02:03 (source organism: SARS-CoV1), 4.9 nM; with HLA-A*02:06 (source organism: SARS-CoV1) it was 8.7 nM; in the test with HLA-A*68:02 (source organism: SARS-CoV1) it was 10 nM.
YNAELLVLL: the IC50 with HLA-A*02:01 (setting [3]) worked out at 609 nM; with HLA-A*02:02 (setting [3]), 118 nM; in the test with HLA-A*02:03 (setting [3]), 1790 nM; in the test with HLA-A*02:06 (setting [3]) it was 474 nM; with HLA-A*68:02 (setting [3]), 44 nM.
FISPASISSV: the IC50 with HLA-A*02:01 (setting [1]) was 1.4 nM; with HLA-A*02:02 (setting [1]), 3 nM; with HLA-A*02:03 (setting [1]) it was 0.11 nM; with HLA-A*02:06 (setting [1]) it was 2 nM; with HLA-A*68:02 (setting [1]), 17 nM.
Take KLLIAILGPL: the IC50 amounted to 67 nM with HLA-A*02:01 (setting [2]); 12 nM with HLA-A*02:02 (setting [2]); 5.9 nM with HLA-A*02:03 (setting [2]); 12 nM in the test with HLA-A*02:06 (setting [2]); 4230 nM with HLA-A*68:02 (setting [2]).
IVAAVIIMAI: the IC50 in the test with HLA-A*02:01 (setting [1]) came out at 4430 nM; in the test with HLA-A*02:02 (setting [1]) it was 727 nM; in the test with HLA-A*02:03 (setting [1]), 2610 nM; in the test with HLA-A*02:06 (setting [1]) it was 4510 nM; with HLA-A*68:02 (setting [1]) it was 95 nM.
The corresponding values for IVAMLLTHGA are 4910 nM, 1160 nM, 153 nM, 82 nM and 505 nM.

Source of the values: the Immune Epitope Database (IEDB).
